Laboratory results published in publication doi:10.1101/2023.03.09.531510.

Assays:
Test in all cases: protein-fragment complementation
[1] = target: Pab1 (UniProt P04147)
[2] = target: Abp1 (UniProt P15891)
[3] = target: Lsb3 (UniProt P43603)
[4] = target: Arc19 (UniProt P33204)
[5] = target: Vrp1 (UniProt P37370)
[6] = target: Ssz1 (UniProt P38788)
[7] = target: Srv2 (UniProt P17555)
[8] = target: Hsp104 (UniProt P31539)
[9] = target: Pan1 (UniProt P32521)
[10] = target: Mid2 (UniProt P36027)
[11] = target: Cdc10 (UniProt P25342)
[12] = target: Aim21 (UniProt P40563)
[13] = target: Bbc1 (UniProt P47068)
[14] = target: Myo5 (UniProt Q04439)
[15] = target: Yor1 (UniProt P53049)
[16] = target: Cmd1 (UniProt P06787)
[17] = target: Nap1 (UniProt P25293)
[18] = target: Arc15 (UniProt P40518)
[19] = target: Ysc84 (UniProt P32793)
[20] = target: Bmh1 (UniProt P29311)
[21] = target: Sac6 (UniProt P32599)
[22] = target: Ste20 (UniProt Q03497)
[23] = target: Las17 (UniProt Q12446)
[24] = target: Ssa1 (UniProt P10591)
[25] = target: Chc1 (UniProt P22137)
[26] = target: Ygl242c (UniProt P53066)
[27] = target: Pfk1 (UniProt P16861)
[28] = target: Ssb1 (UniProt P11484)
[29] = target: Arc40 (UniProt P38328)
[30] = target: Rvs167 (UniProt P39743)
[31] = target: Ssb2 (UniProt P40150)
[32] = target: Arc18 (UniProt Q05933)
[33] = target: Sbp1 (UniProt P10080)
[34] = target: Smi1 (UniProt P32566)
[35] = target: Hek2 (UniProt P38199)
[36] = target: Sla1 (UniProt P32790)
[37] = target: Sfk1 (UniProt P35735)
[38] = target: Syp1 (UniProt P25623)
[39] = target: Cdc3 (UniProt P32457)
[40] = target: Tif4631 (UniProt P39935)
[41] = target: Osh2 (UniProt Q12451)
[42] = target: Sla2 (UniProt P33338)
[43] = target: Bzz1 (UniProt P38822)
[44] = target: Pkh2
[45] = target: Tdh3 (UniProt P00359)
Sequence of UniProt P00359 (P00359 whole entry): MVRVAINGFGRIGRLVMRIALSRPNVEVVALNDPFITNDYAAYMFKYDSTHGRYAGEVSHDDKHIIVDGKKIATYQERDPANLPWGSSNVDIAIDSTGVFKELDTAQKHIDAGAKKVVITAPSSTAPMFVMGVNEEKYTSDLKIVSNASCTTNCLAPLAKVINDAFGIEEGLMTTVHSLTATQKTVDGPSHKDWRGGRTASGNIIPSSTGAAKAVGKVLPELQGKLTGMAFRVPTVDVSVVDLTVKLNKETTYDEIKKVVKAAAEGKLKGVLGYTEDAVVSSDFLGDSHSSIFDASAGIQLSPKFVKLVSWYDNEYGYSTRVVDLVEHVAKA

Sequence of UniProt P39935 (P39935 whole entry): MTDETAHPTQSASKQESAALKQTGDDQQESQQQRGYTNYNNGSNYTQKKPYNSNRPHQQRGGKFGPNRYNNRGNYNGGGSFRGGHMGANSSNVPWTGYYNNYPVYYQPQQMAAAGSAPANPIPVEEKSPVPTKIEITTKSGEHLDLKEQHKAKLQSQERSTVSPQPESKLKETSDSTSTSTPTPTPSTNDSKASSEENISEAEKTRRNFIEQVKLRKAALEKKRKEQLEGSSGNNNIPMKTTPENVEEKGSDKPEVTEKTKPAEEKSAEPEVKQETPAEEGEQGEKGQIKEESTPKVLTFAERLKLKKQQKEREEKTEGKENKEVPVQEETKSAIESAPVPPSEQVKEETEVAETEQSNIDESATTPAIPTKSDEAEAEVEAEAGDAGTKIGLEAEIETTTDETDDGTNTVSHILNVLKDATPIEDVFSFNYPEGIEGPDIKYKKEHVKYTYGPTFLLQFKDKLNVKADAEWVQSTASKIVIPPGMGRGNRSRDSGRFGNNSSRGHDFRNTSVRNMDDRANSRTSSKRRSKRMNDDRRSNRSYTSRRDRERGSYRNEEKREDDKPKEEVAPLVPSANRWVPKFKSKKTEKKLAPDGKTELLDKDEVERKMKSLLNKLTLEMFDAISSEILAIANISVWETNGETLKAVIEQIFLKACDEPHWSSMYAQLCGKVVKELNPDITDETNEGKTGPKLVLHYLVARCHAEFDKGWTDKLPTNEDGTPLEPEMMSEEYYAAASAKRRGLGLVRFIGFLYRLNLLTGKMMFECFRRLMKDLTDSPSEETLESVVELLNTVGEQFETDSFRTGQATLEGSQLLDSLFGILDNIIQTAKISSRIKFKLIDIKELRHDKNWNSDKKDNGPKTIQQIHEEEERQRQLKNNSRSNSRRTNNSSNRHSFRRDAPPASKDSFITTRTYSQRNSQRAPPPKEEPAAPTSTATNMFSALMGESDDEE
Sequence of UniProt P36027 (P36027 whole entry): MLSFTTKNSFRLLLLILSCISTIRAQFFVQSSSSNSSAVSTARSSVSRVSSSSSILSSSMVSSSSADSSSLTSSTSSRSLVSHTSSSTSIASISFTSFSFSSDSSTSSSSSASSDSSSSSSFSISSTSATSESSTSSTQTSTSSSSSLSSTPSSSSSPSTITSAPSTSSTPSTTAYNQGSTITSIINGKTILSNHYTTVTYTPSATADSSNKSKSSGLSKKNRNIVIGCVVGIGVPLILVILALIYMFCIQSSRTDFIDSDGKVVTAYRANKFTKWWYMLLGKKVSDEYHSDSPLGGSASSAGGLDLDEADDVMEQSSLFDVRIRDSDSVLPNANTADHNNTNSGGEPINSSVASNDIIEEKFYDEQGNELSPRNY
Sequence of UniProt Q03497 (Q03497 whole entry): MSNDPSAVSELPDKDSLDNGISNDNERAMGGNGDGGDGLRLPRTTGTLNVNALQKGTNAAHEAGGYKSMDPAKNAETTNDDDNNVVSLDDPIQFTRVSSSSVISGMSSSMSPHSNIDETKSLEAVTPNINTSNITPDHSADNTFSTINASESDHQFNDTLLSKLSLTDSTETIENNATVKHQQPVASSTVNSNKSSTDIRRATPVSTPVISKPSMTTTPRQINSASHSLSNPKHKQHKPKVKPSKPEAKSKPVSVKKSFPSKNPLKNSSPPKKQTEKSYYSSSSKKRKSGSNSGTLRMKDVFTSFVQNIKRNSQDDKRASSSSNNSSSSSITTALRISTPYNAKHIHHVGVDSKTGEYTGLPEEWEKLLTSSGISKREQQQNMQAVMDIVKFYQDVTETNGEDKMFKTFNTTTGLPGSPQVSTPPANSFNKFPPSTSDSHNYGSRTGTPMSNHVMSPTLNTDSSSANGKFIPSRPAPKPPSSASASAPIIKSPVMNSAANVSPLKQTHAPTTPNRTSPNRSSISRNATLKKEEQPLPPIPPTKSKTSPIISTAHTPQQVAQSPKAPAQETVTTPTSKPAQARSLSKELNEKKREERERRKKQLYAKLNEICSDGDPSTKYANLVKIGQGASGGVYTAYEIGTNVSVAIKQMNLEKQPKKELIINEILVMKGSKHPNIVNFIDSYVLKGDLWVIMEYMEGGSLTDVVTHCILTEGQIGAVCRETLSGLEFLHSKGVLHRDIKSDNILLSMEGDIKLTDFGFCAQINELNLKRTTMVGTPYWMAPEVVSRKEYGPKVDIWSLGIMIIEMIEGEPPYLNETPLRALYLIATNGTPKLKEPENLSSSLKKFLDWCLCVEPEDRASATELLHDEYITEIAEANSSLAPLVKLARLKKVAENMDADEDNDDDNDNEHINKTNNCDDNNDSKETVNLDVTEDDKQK
Sequence of UniProt P32599 (P32599 whole entry): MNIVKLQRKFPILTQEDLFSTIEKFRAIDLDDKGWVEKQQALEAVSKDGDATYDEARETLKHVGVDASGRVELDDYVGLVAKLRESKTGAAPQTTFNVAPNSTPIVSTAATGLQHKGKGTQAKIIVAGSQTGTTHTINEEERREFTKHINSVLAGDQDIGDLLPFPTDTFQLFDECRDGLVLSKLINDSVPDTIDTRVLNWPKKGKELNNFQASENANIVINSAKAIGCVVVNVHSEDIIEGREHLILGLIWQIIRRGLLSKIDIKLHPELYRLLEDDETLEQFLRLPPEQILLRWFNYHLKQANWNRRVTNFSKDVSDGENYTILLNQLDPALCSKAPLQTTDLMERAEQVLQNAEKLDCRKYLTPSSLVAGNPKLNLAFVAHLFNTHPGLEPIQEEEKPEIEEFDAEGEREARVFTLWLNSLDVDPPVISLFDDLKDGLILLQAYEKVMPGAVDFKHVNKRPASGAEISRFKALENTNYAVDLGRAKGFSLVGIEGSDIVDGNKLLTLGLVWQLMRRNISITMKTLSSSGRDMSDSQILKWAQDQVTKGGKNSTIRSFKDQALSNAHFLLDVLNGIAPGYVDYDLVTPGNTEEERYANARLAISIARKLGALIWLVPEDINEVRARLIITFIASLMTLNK
Sequence of UniProt Q05933 (Q05933 whole entry): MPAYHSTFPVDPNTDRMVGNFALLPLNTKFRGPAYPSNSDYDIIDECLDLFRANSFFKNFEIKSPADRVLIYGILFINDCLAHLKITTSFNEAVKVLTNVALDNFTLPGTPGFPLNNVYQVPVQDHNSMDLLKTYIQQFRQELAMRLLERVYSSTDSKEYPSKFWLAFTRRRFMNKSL
Sequence of UniProt P33204 (P33204 whole entry): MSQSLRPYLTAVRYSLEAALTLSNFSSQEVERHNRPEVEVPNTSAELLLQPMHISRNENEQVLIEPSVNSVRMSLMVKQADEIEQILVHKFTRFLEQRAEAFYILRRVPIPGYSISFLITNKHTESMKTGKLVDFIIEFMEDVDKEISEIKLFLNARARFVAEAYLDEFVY
Sequence of UniProt P38328 (P38328 whole entry): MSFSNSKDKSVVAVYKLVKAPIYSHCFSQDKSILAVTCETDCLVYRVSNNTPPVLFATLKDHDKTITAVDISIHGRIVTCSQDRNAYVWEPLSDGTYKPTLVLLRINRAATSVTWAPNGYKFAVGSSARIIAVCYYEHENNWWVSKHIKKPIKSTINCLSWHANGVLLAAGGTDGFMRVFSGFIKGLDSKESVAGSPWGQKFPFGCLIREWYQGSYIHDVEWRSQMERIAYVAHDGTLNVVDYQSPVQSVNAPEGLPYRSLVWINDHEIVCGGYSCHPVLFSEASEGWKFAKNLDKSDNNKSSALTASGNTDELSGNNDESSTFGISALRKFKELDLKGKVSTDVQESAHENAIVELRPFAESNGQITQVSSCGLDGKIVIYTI
Sequence of UniProt P35735 (P35735 whole entry): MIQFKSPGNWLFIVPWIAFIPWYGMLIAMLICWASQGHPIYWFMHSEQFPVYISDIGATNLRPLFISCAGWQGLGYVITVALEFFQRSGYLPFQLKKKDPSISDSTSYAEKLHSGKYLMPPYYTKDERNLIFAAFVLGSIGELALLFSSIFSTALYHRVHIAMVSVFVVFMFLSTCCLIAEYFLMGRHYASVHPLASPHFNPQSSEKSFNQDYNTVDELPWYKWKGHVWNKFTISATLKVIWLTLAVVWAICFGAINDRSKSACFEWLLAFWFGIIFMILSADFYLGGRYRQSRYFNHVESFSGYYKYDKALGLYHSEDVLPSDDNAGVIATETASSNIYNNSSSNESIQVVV
Sequence of UniProt P17555 (P17555 whole entry): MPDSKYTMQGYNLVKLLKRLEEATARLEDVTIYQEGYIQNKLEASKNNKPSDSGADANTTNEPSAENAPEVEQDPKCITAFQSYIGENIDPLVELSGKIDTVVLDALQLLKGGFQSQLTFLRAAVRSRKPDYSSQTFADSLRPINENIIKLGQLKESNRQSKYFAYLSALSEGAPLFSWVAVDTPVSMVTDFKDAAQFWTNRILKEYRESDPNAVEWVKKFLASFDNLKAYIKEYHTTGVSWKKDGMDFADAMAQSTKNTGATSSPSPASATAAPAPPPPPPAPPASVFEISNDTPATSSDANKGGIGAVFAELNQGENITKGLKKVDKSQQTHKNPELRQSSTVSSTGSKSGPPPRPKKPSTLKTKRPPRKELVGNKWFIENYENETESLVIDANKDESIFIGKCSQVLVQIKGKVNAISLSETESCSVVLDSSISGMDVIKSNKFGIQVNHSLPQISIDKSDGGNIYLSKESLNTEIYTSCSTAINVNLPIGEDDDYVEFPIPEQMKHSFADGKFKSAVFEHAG

Myo5 with SH3 AncA_3 (from UniProt Q04439)
interaction score [1]: 0.756
interaction score [2]: 0.865
interaction score [3]: 0.595
interaction score [4]: 0.724
interaction score [5]: 0.862
interaction score [6]: 0.776
interaction score [7]: 0.591
interaction score [8]: 0.724
interaction score [9]: 0.876
interaction score [10]: 0.821
interaction score [11]: 0.404
interaction score [12]: 0.715
interaction score [13]: 0.698
interaction score [14]: 0.869
interaction score [15]: 0.467
interaction score [16]: 0.405
interaction score [17]: 0.444
interaction score [18]: 0.837
interaction score [19]: 0.455
interaction score [20]: 0.762
interaction score [21]: 0.775
interaction score [22]: 0.424
interaction score [23]: 0.823
interaction score [24]: 0.849
interaction score [25]: 0.553
interaction score [26]: 0.881
interaction score [27]: 0.807
interaction score [28]: 0.889
interaction score [29]: 0.902
interaction score [30]: 0.501
interaction score [31]: 0.881
interaction score [32]: 0.812
interaction score [33]: 0.772
interaction score [34]: 0.514
interaction score [35]: 0.366
interaction score [36]: 0.51
interaction score [37]: 0.691
interaction score [38]: 0.513
interaction score [39]: 0.466
interaction score [40]: 0.621
interaction score [41]: 0.703
interaction score [42]: 0.59
interaction score [43]: 0.767
interaction score [44]: 0.142

Myo5 with SH3 AncC (from UniProt Q04439)
interaction score [1]: 0.783
interaction score [2]: 0.887
interaction score [3]: 0.584
interaction score [45]: 0.949
interaction score [4]: 0.72
interaction score [5]: 0.89
interaction score [6]: 0.81
interaction score [7]: 0.579
interaction score [8]: 0.76
interaction score [9]: 0.896
interaction score [10]: 0.846
interaction score [11]: 0.334
interaction score [12]: 0.727
interaction score [13]: 0.712
interaction score [14]: 0.885
interaction score [15]: 0.395
interaction score [16]: 0.412
interaction score [17]: 0.469
interaction score [18]: 0.874
interaction score [19]: 0.431
interaction score [20]: 0.806
interaction score [21]: 0.807
interaction score [22]: 0.33
interaction score [23]: 0.843
interaction score [24]: 0.883
interaction score [25]: 0.578
interaction score [26]: 0.919
interaction score [28]: 0.93
interaction score [29]: 0.946
interaction score [30]: 0.404
interaction score [31]: 0.92
interaction score [32]: 0.85
interaction score [33]: 0.816
interaction score [34]: 0.555
interaction score [35]: 0.421
interaction score [36]: 0.489
interaction score [37]: 0.685
interaction score [38]: 0.48
interaction score [39]: 0.438
interaction score [40]: 0.659
interaction score [41]: 0.654
interaction score [42]: 0.575
interaction score [43]: 0.782
interaction score [44]: 0.0849

Myo5 with SH3 AncD (from UniProt Q04439)
interaction score [1]: 0.805
interaction score [2]: 0.878
interaction score [3]: 0.487
interaction score [45]: 0.968
interaction score [4]: 0.655
interaction score [5]: 0.855
interaction score [6]: 0.848
interaction score [7]: 0.522
interaction score [8]: 0.77
interaction score [9]: 0.87
interaction score [10]: 0.827
interaction score [11]: 0.31
interaction score [12]: 0.647
interaction score [13]: 0.562
interaction score [14]: 0.862
interaction score [15]: 0.254
interaction score [16]: 0.278
interaction score [17]: 0.463
interaction score [18]: 0.887
interaction score [19]: 0.318
interaction score [20]: 0.838
interaction score [21]: 0.793
interaction score [22]: 0.718
interaction score [23]: 0.785
interaction score [24]: 0.903
interaction score [25]: 0.589
interaction score [26]: 0.949
interaction score [27]: 0.862
interaction score [28]: 0.935
interaction score [29]: 0.952
interaction score [30]: 0.273
interaction score [31]: 0.938
interaction score [32]: 0.825
interaction score [33]: 0.83
interaction score [34]: 0.551
interaction score [35]: 0.351
interaction score [36]: 0.309
interaction score [37]: 0.545
interaction score [38]: 0.338
interaction score [39]: 0.353
interaction score [40]: 0.687
interaction score [41]: 0.352
interaction score [42]: 0.473
interaction score [43]: 0.701
interaction score [44]: 0.0507

Myo5 with SH3 optMyo5 (from UniProt Q04439)
interaction score [1]: 0.794
interaction score [2]: 0.903
interaction score [3]: 0.639
interaction score [45]: 0.97
interaction score [4]: 0.769
interaction score [5]: 0.916
interaction score [6]: 0.841
interaction score [7]: 0.658
interaction score [8]: 0.762
interaction score [9]: 0.926
interaction score [10]: 0.866
interaction score [11]: 0.423
interaction score [12]: 0.758
interaction score [13]: 0.758
interaction score [14]: 0.915
interaction score [15]: 0.521
interaction score [16]: 0.319
interaction score [17]: 0.509
interaction score [18]: 0.902
interaction score [19]: 0.514
interaction score [20]: 0.831
interaction score [21]: 0.838
interaction score [22]: 0.446
interaction score [23]: 0.875
interaction score [24]: 0.908
interaction score [25]: 0.603
interaction score [26]: 0.948
interaction score [27]: 0.877
interaction score [28]: 0.944
interaction score [29]: 0.968
interaction score [30]: 0.539
interaction score [31]: 0.932
interaction score [33]: 0.834
interaction score [34]: 0.568
interaction score [35]: 0.412
interaction score [36]: 0.551
interaction score [37]: 0.723
interaction score [38]: 0.572
interaction score [39]: 0.493
interaction score [40]: 0.671
interaction score [41]: 0.768
interaction score [42]: 0.65
interaction score [43]: 0.814
interaction score [44]: 0.124
